According to US20230399371A1, “IL-12 COMPOSITIONS AND METHODS OF USE THEREOF” (published 2023):

Target: IL-12Rβ1/IL-12Rβ2 receptor complex (human, UniProt P42701)
Assay: cell-based or functional assay

B1: P36693671 (other)
chain 1: QVQLVQSGAEVKKPGASVKVSCKASGYTFTMNIIHWVRQAPGQGLEWMGWIHPGSGAIKYAQKLQGRVTMTTDTSTSTAYMELRSLRSDDTAVYYCARHGGTGRGAMDYWGQGTLVTVSSASTKGPSVFPLAPSSKSTSGGTAALGCLVKDYFPEPVTVSWNSGALTSGVHTFPAVLQSSGLYSLSSVVTVPSSSLGTQTYICNVNHKPSNTKVDKKVEPKSCDKGGGGSSGRSDNRGGGGSIWELKKDVYVVELDWYPDAPGEMVVLTCDTPEEDGITWTLDQSSEVLGSGKTLTIQVKEFGDAGQYTCHKGGEVLSHSLLLLHKKEDGIWSTDILKDQKEPKNKTFLRCEAKNYSGRFTCWWLTTISTDLTFSVKSSRGSSDPQGVTCGAATLSAERVRGDNKEYEYSVECQEDSAAPAAEESLPIEVMVDAVHKLKYENYTSSFFIRDIIKPDPPKNLQLKPLKNSRQVEVSWEYPDTWSTPHSYFSLTFSVQVQGQDQDEKKDRVFTDKTSATVICRKNASISVRAQDRYYSSSWSEWASVPCS
chain 2: EIVLTQSPGTLSLSPGERATLSCRASQSVSTSAYSYMHWYQQKPGQAPRLLIYLASNLESGIPDRFSGSGSGTDFTLTISRLEPEDFAVYYCQQSRELPYTFGQGTKLEIKRTVAAPSVFIFPPSDEQLKSGTASVVCLLNNFYPREAKVQWKVDNALQSGNSQESVTEQDSKDSTYSLSSTLTLSKADYEKHKVYACEVTHQGLSSPVTKSFNRGECGGGGSPLGLAGRNLPVATPDPGMFPCLHHSQNLLRAVSNMLQKARQTLEFYPCTSEEIDHEDITKDKTSTVEACLPLELTKNESSLNSRETSFITNGSCLASRKTSFMMALCLSSIYEDLKMYQVEFKTMNAKLLMDPKRQIFLDQNMLAVIDELMQALNFNSETVPQKSSLEEPDFYKTKIKLCILLHAFRIRAVTIDRVMSYLNAS
IFN-γ secretion by NK92MI cells (ELISA, 48 hrs): ~70 fold lower
